Measured values: the supplement of paper PMC9233669
This sample holds only a part of the variants without activity.

Key:
biotinyl-Phe-oxazolone = test: self-aminoacylation, catalytic enhancement (BFO) (fold over background); higher = more active; k-Seq, kA / k0A0; sequences stand for … in GGGAAUGGAUCCACAUCUACGAAUUC…UUCACUGCAGACUUGACGAAGCUG
Outline: (§1)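 Mutagenized RNA pools (0.43 μM; 21-nt variable region) were treated with 2–1250 μM of each biotinyl-aminoacyl-oxazolone. Conditions were 50 μL HEPES/NaCl/KCl/MgCl2/CaCl2 buffer, 5% acetonitrile, pH 6.9–7.0, room temperature, 90 minutes. Catalytic enhancement, the median kA relative to the uncatalyzed rate, was derived from streptavidin capture, qPCR and Illumina sequencing.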

biotinyl-Met-oxazolone = test: self-aminoacylation, catalytic enhancement (BMO) (fold over background); higher = more active; k-Seq, kA / k0A0; sequences stand for … in GGGAAUGGAUCCACAUCUACGAAUUC…UUCACUGCAGACUUGACGAAGCUG
Outline: as §1

biotinyl-Leu-oxazolone = test: self-aminoacylation, catalytic enhancement (BLO) (fold over background); higher = more active; k-Seq, kA / k0A0; sequences stand for … in GGGAAUGGAUCCACAUCUACGAAUUC…UUCACUGCAGACUUGACGAAGCUG
Outline: as §1

biotinyl-Ile-oxazolone = test: self-aminoacylation, catalytic enhancement (BIO) (fold over background); higher = more active; k-Seq, kA / k0A0; sequences stand for … in GGGAAUGGAUCCACAUCUACGAAUUC…UUCACUGCAGACUUGACGAAGCUG
Outline: as §1

biotinyl-Val-oxazolone = test: self-aminoacylation, catalytic enhancement (BVO) (fold over background); higher = more active; k-Seq, kA / k0A0; sequences stand for … in GGGAAUGGAUCCACAUCUACGAAUUC…UUCACUGCAGACUUGACGAAGCUG
Outline: as §1

biotinyl-Trp-oxazolone = test: self-aminoacylation, catalytic enhancement (BWO) (fold over background); higher = more active; k-Seq, kA / k0A0; sequences stand for … in GGGAAUGGAUCCACAUCUACGAAUUC…UUCACUGCAGACUUGACGAAGCUG
Outline: as §1

Sequence	self-aminoacylation (biotinyl-Phe-oxazolone)	self-aminoacylation (biotinyl-Met-oxazolone)	self-aminoacylation (biotinyl-Leu-oxazolone)	self-aminoacylation (biotinyl-Ile-oxazolone)	self-aminoacylation (biotinyl-Val-oxazolone)	self-aminoacylation (biotinyl-Trp-oxazolone)
AUUACCAUGGUAAUCGAGUGA [Fam2.1 aminoacylation ribozyme variant]	50.3	8.72	8.44	3.78	3.89	10.7
UAGUGUGCUAAUAGUCGCAAG [Fam3.1 aminoacylation ribozyme variant]	2.94	1.88	1.21	1.83	1.76	2.19
AUUCGCCUAGGUCAUCGGGUC [Fam2.2 aminoacylation ribozyme variant]	6.94	1.62	1.88	1.58	1.91	1.76
CCACCCUUCCAGCAAUCGGUC [Fam1B.1 aminoacylation ribozyme variant]	1.15	1.02	1.04	1.41	1.94	1.51
AUUACCCUGGACAUCGCGUGA [Fam2.1 aminoacylation ribozyme variant]	80	9.04	9.65	4.42	5.5	9.83
AAGGUUGCGAAUAGUCGCAAG [Fam3.1 aminoacylation ribozyme variant]	6.53	1.37	1.2	1.64	1.03	0.982
AAGAUUGCUAAUCGUCGCAAG [Fam3.1 aminoacylation ribozyme variant]	1.34	1.57	1.2	2.12	1.52	2.1
AUUCACCUAGGUCAUAGGGUU [Fam2.2 aminoacylation ribozyme variant]	0.392	0.827	0.676	0.918	0.804	0.959
AAGCUUGCUAAUAGUCGUAAG [Fam3.1 aminoacylation ribozyme variant]	8.49	1.12	0.843	1.26	1.48	2.69
CAACACUUCAAGCAAUCGGUC [Fam1B.1 aminoacylation ribozyme variant]	43.1	1.11	1.55	1.13	1.27	20.1
AUGACCCUGGUCAUCGGGUGA [Fam2.1 aminoacylation ribozyme variant]	571	90.6	99	31.9	35.1	94.9
CUACUUCAGACUAUCGGUCUG [Fam1A.1 aminoacylation ribozyme variant]	0.949	0.734	0.832	0.816	0.943	0.939
CUAGUUCAAACAAUCGGUCUA [Fam1A.1 aminoacylation ribozyme variant]	2.81	0.777	0.647	0.813	0.759	1.43
AUACUUCAAACACUCGGUCUG [Fam1A.1 aminoacylation ribozyme variant]	1.31	0.83	0.917	1.06	0.821	0.981
AUUCCCCUGGUCAUCGACUGA [Fam2.1 aminoacylation ribozyme variant]	1.59	1.23	1.25	1.54	1.64	1.41
AAGUUUGCGAAUUGUCGCAAG [Fam3.1 aminoacylation ribozyme variant]	6.83	2.15	1.94	1.77	2.23	2.19
GCACGCUUCAAGCAAUCGGUC [Fam1B.1 aminoacylation ribozyme variant]	120	2.62	3.62	2.55	2.74	60.1
ACUCACGUAGGUCAUCGGGUG [Fam2.2 aminoacylation ribozyme variant]	32.9	3.04	4.27	2.89	3.73	3.88
AUUACCCUGGUCAUCGAGCGC [Fam2.1 aminoacylation ribozyme variant]	1.86	2.53	2.33	2.09	2.29	1.16
CUACACUUGAAGCAAUCGGUC [Fam1B.1 aminoacylation ribozyme variant]	0.507	0.597	0.583	0.662	0.64	0.509
CUACUUCGAACAAUCGGUUUG [Fam1A.1 aminoacylation ribozyme variant]	0.591	0.581	0.526	0.649	0.717	0.404
CUACUUCAUACGAUCGGUCUG [Fam1A.1 aminoacylation ribozyme variant]	0.597	0.624	0.526	0.61	0.852	0.824
AAGAUUGCUAUUAGUCGCAAG [Fam3.1 aminoacylation ribozyme variant]	1.79	1.55	1.62	1.73	1.6	1.87
CCACACCUAAAGCAAUCGGUC [Fam1B.1 aminoacylation ribozyme variant]	1.09	0.876	1.02	1	1.31	1.01
AUUCACCUAUGUCAUAGGGUG [Fam2.2 aminoacylation ribozyme variant]	1.08	1.46	1.75	1.36	1.15	0.856
AUUCAUCUAGGUCAUCGAGUG [Fam2.2 aminoacylation ribozyme variant]	4.08	3.88	4.86	2.63	2.38	3.67

Sequence	self-aminoacylation (biotinyl-Phe-oxazolone)	self-aminoacylation (biotinyl-Met-oxazolone)	self-aminoacylation (biotinyl-Leu-oxazolone)	self-aminoacylation (biotinyl-Ile-oxazolone)	self-aminoacylation (biotinyl-Val-oxazolone)	self-aminoacylation (biotinyl-Trp-oxazolone)
CCACAAUUUAAGCAAUCGGUC [Fam1B.1 aminoacylation ribozyme variant]	1.12	0.776	0.824	1.2	1.02	0.864
AUUACCCUUGUCCUCGAGUGA [Fam2.1 aminoacylation ribozyme variant]	32.2	4.9	4.77	2.68	3.08	5.17
CCGCACUUCAAGCAAACGGUC [Fam1B.1 aminoacylation ribozyme variant]	0.946	0.724	0.684	0.937	1.3	1.04
AUUACCCUGGUCAUCGUGUGC [Fam2.1 aminoacylation ribozyme variant]	1.25	0.938	1.12	0.992	0.881	0.349
AACUUUGCGAAUAGUCGCAAG [Fam3.1 aminoacylation ribozyme variant]	4.36	2.67	2.6	2.42	2.4	2.9
CUUCACCUAGGUGAUCGGGUG [Fam2.2 aminoacylation ribozyme variant]	20.6	3.91	4.03	3.56	3.9	4.93
AUUCACAUAGGUUAUCGGGUG [Fam2.2 aminoacylation ribozyme variant]	40.2	5.32	6.69	3.23	3.67	5.37
CUACUUGAAAAAAUCGGUCUG [Fam1A.1 aminoacylation ribozyme variant]	0.472	0.781	0.801	0.862	0.822	0.84
GAGUUUGGUAAUAGUCGCAAG [Fam3.1 aminoacylation ribozyme variant]	3.41	1.75	1.73	1.94	1.55	2.36
CUACUUCUAACAAUCAGUCUG [Fam1A.1 aminoacylation ribozyme variant]	0.82	0.524	0.603	0.663	0.689	0.502
AUUCAACUAGGUCAUCAGGUG [Fam2.2 aminoacylation ribozyme variant]	1.43	1.29	1.54	1.28	1.22	1.33
AUUCACCUUGGUCAUCCGGUG [Fam2.2 aminoacylation ribozyme variant]	60.2	8.93	11.5	6.27	6.17	7.75
CUACUUCAAACAGUCGGUCUC [Fam1A.1 aminoacylation ribozyme variant]	0.732	0.765	1.02	0.903	0.8	0.456
AUUACCAUGAUCAUCGAGUGA [Fam2.1 aminoacylation ribozyme variant]	56.1	11.1	11.6	5.54	5.53	14.6
AUUACGCUGGUCAUCGAGUGU [Fam2.1 aminoacylation ribozyme variant]	2.57	2.96	2.9	2.34	2.64	3.22
CCACAAUUCAAGCAAUCGGUG [Fam1B.1 aminoacylation ribozyme variant]	60.3	8.06	12.3	6.36	5.99	8.78
AUUCACCUAGUUCAACGGGUG [Fam2.2 aminoacylation ribozyme variant]	17.1	2.42	2.88	1.65	1.73	2.46
AUAGCCCUGGUCAUCGAGUGA [Fam2.1 aminoacylation ribozyme variant]	78.5	19.9	20.3	8.62	7.53	21.6
CCACACUUCAAUCACUCGGUC [Fam1B.1 aminoacylation ribozyme variant]	0.947	0.763	0.773	0.936	0.984	0.753
AUAAUCCUGGUCAUCGAGUGA [Fam2.1 aminoacylation ribozyme variant]	9.11	7.24	6.95	3.72	3.48	7.96
AUUACUCUGGUCAUCGAGUCA [Fam2.1 aminoacylation ribozyme variant]	1.04	0.944	0.928	1.09	0.978	0.628
CCACAUUUCAAGCAGUCGGUC [Fam1B.1 aminoacylation ribozyme variant]	0.868	0.9	0.899	1.15	1.15	0.803
CUACUUCCAACAAUCGGUCUA [Fam1A.1 aminoacylation ribozyme variant]	0.924	0.632	0.701	0.839	0.892	0.598
AUUCACCUAGGUCGUCGGGGG [Fam2.2 aminoacylation ribozyme variant]	8.18	3.07	3.38	3.11	2.9	3.53
AUUCGCCUAGGUGAUCGGGUG [Fam2.2 aminoacylation ribozyme variant]	20.6	2.35	3.46	2.56	2.48	3.31
